Values quoted from earlier work in paper PMC12703448.

Target: PDE6D (Homo sapiens) (UniProt O43924)
Sequence (O43924 whole entry): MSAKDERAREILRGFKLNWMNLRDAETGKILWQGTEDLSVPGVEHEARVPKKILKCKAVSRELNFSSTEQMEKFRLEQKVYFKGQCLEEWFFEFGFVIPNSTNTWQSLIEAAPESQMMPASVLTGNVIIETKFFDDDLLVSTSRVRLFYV

INPP5E, sequence (Q9NRR6 1-641): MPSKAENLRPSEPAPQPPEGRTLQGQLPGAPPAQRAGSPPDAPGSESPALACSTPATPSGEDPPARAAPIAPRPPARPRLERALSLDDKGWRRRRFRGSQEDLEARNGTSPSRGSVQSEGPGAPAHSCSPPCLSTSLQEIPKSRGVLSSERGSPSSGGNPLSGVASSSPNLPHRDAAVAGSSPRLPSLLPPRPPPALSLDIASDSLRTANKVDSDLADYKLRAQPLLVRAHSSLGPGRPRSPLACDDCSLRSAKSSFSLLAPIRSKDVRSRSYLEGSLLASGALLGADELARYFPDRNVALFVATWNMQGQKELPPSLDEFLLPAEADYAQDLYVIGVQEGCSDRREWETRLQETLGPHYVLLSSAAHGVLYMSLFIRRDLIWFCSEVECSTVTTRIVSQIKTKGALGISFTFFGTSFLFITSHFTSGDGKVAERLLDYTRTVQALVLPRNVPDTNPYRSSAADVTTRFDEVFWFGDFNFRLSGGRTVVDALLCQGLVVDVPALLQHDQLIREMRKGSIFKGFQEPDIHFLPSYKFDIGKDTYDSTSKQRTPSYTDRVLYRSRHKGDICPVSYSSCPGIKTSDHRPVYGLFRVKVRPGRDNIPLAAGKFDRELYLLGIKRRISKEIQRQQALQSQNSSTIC

Substance: INPP5E (from UniProt Q9NRR6)
- Kd: 4 nM
